± gives the uncertainty stated by the source.
Assay: protein stability index of a GFP-peptide fusion (yeast GPS) (PSI 1-4); higher = more stable; sorted into four equal gates, so the index is relative within each strain
Outline: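 Tiled yeast protein peptides of 17 residues were each joined downstream of GFP, on plasmids that also express Cherry. The pooled library was maintained in yeast, and mid-log cultures in leucine-free medium were sorted into four equal gates on the GFP/Cherry ratio. Plasmids from every gate were amplified by PCR and sequenced on Illumina, with barcodes linking reads to strains. The protein stability index of a peptide is its gate-number-weighted read frequency summed over the gates.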

EFESELKNVEETQEIKE [ESC2]
protein stability index (doa10∆): 3.54 ± 0.25
protein stability index (pdr5∆): 3.46 ± 0.2
protein stability index (san1∆): 3.25 ± 0.18
protein stability index (ubr1∆): 3.29 ± 0.15

KDLQENLLVLRGKNEII [RPO21]
protein stability index (doa10∆): 1.31 ± 0.077
protein stability index (pdr5∆): 1.52 ± 0.056
protein stability index (san1∆): 1.6 ± 0.12
protein stability index (ubr1∆): 1.58 ± 0.071

VPNYEVSEKAFLLTQSK [RPN7]
protein stability index (doa10∆): 3.17 ± 0.18
protein stability index (pdr5∆): 3.47 ± 0.24
protein stability index (ubr1∆): 2.75 ± 0.14

DTSGLKISNSEFFNPEI [SIN4]
protein stability index (doa10∆): 3.21 ± 0.096
protein stability index (pdr5∆): 3.44 ± 0.12
protein stability index (san1∆): 3.1 ± 0.058
protein stability index (ubr1∆): 3.29 ± 0.074

LKGRVVEVCLADLQGSE [RPS1A]
protein stability index (doa10∆): 2.65 ± 0.062
protein stability index (pdr5∆): 3.08 ± 0.071
protein stability index (san1∆): 2.51 ± 0.076
protein stability index (ubr1∆): 2.49 ± 0.055

VRLQRQKKILSIRLKVP [RPL8B]
protein stability index (doa10∆): 1.5 ± 0.032
protein stability index (pdr5∆): 1.29 ± 0.032
protein stability index (san1∆): 1.27 ± 0.055
protein stability index (ubr1∆): 1.25 ± 0.025

IVKTTTKQRLDAYYDLE [PRP8]
protein stability index (doa10∆): 2.77 ± 0.092
protein stability index (pdr5∆): 3.28 ± 0.069
protein stability index (san1∆): 3.07 ± 0.05
protein stability index (ubr1∆): 3.19 ± 0.044

ESKLRDDLERLKKIRAH [RPS18A]
protein stability index (doa10∆): 2.78 ± 0.13
protein stability index (pdr5∆): 1.98 ± 0.087
protein stability index (san1∆): 1.5 ± 0.16
protein stability index (ubr1∆): 3.3 ± 0.048

GEAEAEKEEEEAKEESD [RPP1A]
protein stability index (doa10∆): 2.13 ± 0.22
protein stability index (pdr5∆): 3.51 ± 0.15
protein stability index (san1∆): 2.54 ± 0.16
protein stability index (ubr1∆): 3.52 ± 0.14

NVEMEEDVLVNQILMSV [RPL1A]
protein stability index (doa10∆): 2.83 ± 0.13
protein stability index (pdr5∆): 3.14 ± 0.1
protein stability index (san1∆): 1.61 ± 0.15
protein stability index (ubr1∆): 2.92 ± 0.083

GLALQLFKKLKEENDEG [RPN2]
protein stability index (doa10∆): 3.27 ± 0.12
protein stability index (pdr5∆): 3.28 ± 0.12
protein stability index (san1∆): 2.96 ± 0.1
protein stability index (ubr1∆): 3.41 ± 0.096

KASRKSVGLPSKVASSL [ECM29]
protein stability index (doa10∆): 2.81 ± 0.055
protein stability index (pdr5∆): 2.79 ± 0.066
protein stability index (san1∆): 2.69 ± 0.056
protein stability index (ubr1∆): 2.84 ± 0.052

DPESRTQSYNNQNTLKE [POP1]
protein stability index (doa10∆): 2.72 ± 0.069
protein stability index (pdr5∆): 2.69 ± 0.056
protein stability index (san1∆): 2.88 ± 0.079
protein stability index (ubr1∆): 2.79 ± 0.05

WKYNNFLQKFEIAFHLT [YML103C/NUP188]
protein stability index (doa10∆): 2.36 ± 0.048
protein stability index (pdr5∆): 2.19 ± 0.032
protein stability index (san1∆): 2.01 ± 0.052
protein stability index (ubr1∆): 2.36 ± 0.027

EIILKLCRNPLTSGLLY [YJL039C/NUP192]
protein stability index (doa10∆): 2.21 ± 0.069
protein stability index (pdr5∆): 1.84 ± 0.07
protein stability index (san1∆): 1.22 ± 0.16
protein stability index (ubr1∆): 1.17 ± 0.046

SKNELKKAFTSYDRTLL [RPS16A]
protein stability index (doa10∆): 2.76 ± 0.067
protein stability index (pdr5∆): 3.14 ± 0.057
protein stability index (san1∆): 3.12 ± 0.07
protein stability index (ubr1∆): 2.91 ± 0.077

EELVSLAVFLFDIYNRD [YJL039C/NUP192]
protein stability index (doa10∆): 2.03 ± 0.099
protein stability index (pdr5∆): 1.24 ± 0.059
protein stability index (san1∆): 1.41 ± 0.2
protein stability index (ubr1∆): 1.39 ± 0.071

AAPAATSAASGDAAPAE [RPP0]
protein stability index (doa10∆): 2.6 ± 0.091
protein stability index (pdr5∆): 2.38 ± 0.049
protein stability index (san1∆): 1.6 ± 0.1
protein stability index (ubr1∆): 2.42 ± 0.063

LLDVVKGTEASNDIIDK [YDL116W/NUP84]
protein stability index (doa10∆): 2.08 ± 0.19
protein stability index (pdr5∆): 2.51 ± 0.14
protein stability index (san1∆): 1.92 ± 0.15
protein stability index (ubr1∆): 1.47 ± 0.041

SSEQFNVWDWNNWTSAT [GAL11]
protein stability index (doa10∆): 3.08 ± 0.1
protein stability index (pdr5∆): 3.17 ± 0.095
protein stability index (san1∆): 3.14 ± 0.067
protein stability index (ubr1∆): 3.1 ± 0.083

VTLDITTLTIMRILPRE [RPT4]
protein stability index (doa10∆): 2.53 ± 0.057
protein stability index (pdr5∆): 2.25 ± 0.061
protein stability index (san1∆): 2.17 ± 0.081
protein stability index (ubr1∆): 2.45 ± 0.038

SSLFQEKLLETNVSKQN [ECM29]
protein stability index (doa10∆): 2.74 ± 0.11
protein stability index (pdr5∆): 2.55 ± 0.1
protein stability index (san1∆): 2.35 ± 0.065
protein stability index (ubr1∆): 2.52 ± 0.071

VTLSQLVSVTSTLQHFQ [MED8]
protein stability index (doa10∆): 1.9 ± 0.029
protein stability index (pdr5∆): 2.02 ± 0.031
protein stability index (san1∆): 1.96 ± 0.037
protein stability index (ubr1∆): 1.87 ± 0.02

NKEGTLEQREQNENLPS [SSN2]
protein stability index (doa10∆): 3.02 ± 0.11
protein stability index (pdr5∆): 3.06 ± 0.074
protein stability index (san1∆): 3.09 ± 0.057
protein stability index (ubr1∆): 3.05 ± 0.057

VNKVPQNVAGDKTAVKL [SWP82]
protein stability index (doa10∆): 2.71 ± 0.16
protein stability index (pdr5∆): 3.04 ± 0.11
protein stability index (san1∆): 2.8 ± 0.096
protein stability index (ubr1∆): 3.07 ± 0.071

LLHNHLKSIESLKLENS [SMC2]
protein stability index (doa10∆): 1.4 ± 0.1
protein stability index (pdr5∆): 1.82 ± 0.11
protein stability index (san1∆): 1.24 ± 0.28
protein stability index (ubr1∆): 2.52 ± 0.21

From the supplement of paper PMC9732359
